From the supplement of paper PMC9170038

Tested on: MS2 coat protein
Assay: apparent KD of MS2 coat protein; designed switch direction (-1 OFF switch, 1 ON switch): -1; higher = weaker reporter binding
Outline: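 Transcription of designed RNA switches on Illumina chips was done by stalled E. coli RNA polymerase. SNAP-549-labelled MS2 coat protein was then titrated in doubling steps from 0.7 or 1.5 nM to 3 µM, with steps of 0.8–1.5 h at the lowest and 10–20 min at the highest concentration. The per-design median over clusters of curve-fitted normalised fluorescence is reported as apparent KD.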

[1] = input ligand: microRNA oligo, concentration not stated
[2] = Eterna round: R95, input ligand: FMN 200 uM
[3] = Eterna round: R95, input ligand: microRNA oligo, concentration not stated
[4] = Eterna round: R95, input ligand: none

Sequence: CUGAGUAGUCAGGAUAUGCUGUACAAAAGUACAGCAGAAGGGAUUACAUGAGGAUCACCCAUGUGUACUUCAUG [)mei Ex6 B20] (Eterna round: R97, puzzle: Exclusion 6)
- apparent KD of MS2 coat protein (input ligand: FMN 200 uM): 0.401 µM
- apparent KD of MS2 coat protein (input ligand: none): 0.184 µM

Sequence: AACCUAAGGCAUAGCUUUAGGUUUACAUGAGGAUCACCCAUGUAGGAUAUGGUAGGCAUAGCUUACCAGAAGGACAUGAAAAUU [Mat - Exclusion NG 3 - Mod of JL - D31] (Eterna round: R96, puzzle: Exclusion NG 3)
- apparent KD of MS2 coat protein (input ligand: FMN 200 uM): 0.24 µM
- apparent KD of MS2 coat protein [1]: 0.0468 µM
- apparent KD of MS2 coat protein (input ligand: none): 0.0461 µM

Sequence: AACAGGUCAGGAUAUACAUGAGGAUCACCCAUGUAGACUUCUAGUCUAUCGUGACUGUGUAGAAGGGACCUGAA [Exclusion 3 (MOD of #98 Marzena11)] (Eterna round: R97, puzzle: Exclusion 3)
- apparent KD of MS2 coat protein (input ligand: FMN 200 uM): 0.146 µM
- apparent KD of MS2 coat protein (input ligand: none): 0.0401 µM

Sequence: GUCGGGCGUGUCAGGAUAUGGUAGAGUGGUCGCGGCCAGAAGGGACAUGAGGAUCACCCAUGUUCCGUGGGCAG [BmEX4 C.11] (Eterna round: R97, puzzle: Brourd's mod of Exclusion 4)
- apparent KD of MS2 coat protein (input ligand: FMN 200 uM): 0.019 µM
- apparent KD of MS2 coat protein (input ligand: none): 0.0199 µM

Sequence: AAAAAACAAGGAUAUACGAAGGAGGGUUAUCUUAAUUUUUGACAUGAGGAUCACCCAUGUAGAAGGUGUUAAAA [JR_Exclusion2_Sub011] (puzzle: Exclusion 2)
- apparent KD of MS2 coat protein [2]: 0.571 µM
- apparent KD of MS2 coat protein [3]: 0.202 µM
- apparent KD of MS2 coat protein [4]: 0.156 µM

Sequence: AAUUAUUAUUGAGGAUAUCGUAUUGAAACAAUACGAGAAGGCGGAAUAAACAUGAGGAUCACCCAUGUGAGCCUGAUGCUUAUG [Ex NG1 #43] (Eterna round: R96, puzzle: Exclusion NG 1)
- apparent KD of MS2 coat protein [1]: 0.0211 µM

Sequence: AGUUCACAUGAGGAUCACCCAUGUGAGGAUAUGGUUUCGCUGGCCGUAGCCAGUGGAACCAGAAGGCGCAUGAU [Mat - Exclusion 1 - JL Mod - D14] (Eterna round: R97, puzzle: Exclusion 1)
- apparent KD of MS2 coat protein (input ligand: FMN 200 uM): 0.0386 µM
- apparent KD of MS2 coat protein (input ligand: none): 0.0345 µM

Sequence: CGUCAUCAAGUCAGGAUAUCGUCAAAUCAAUCAGGCGAGAAGGGACAUGAGGAUCACCCAUGUCGACUCAUCAC [Ex4 #3] (Eterna round: R97, puzzle: Brourd's mod of Exclusion 4)
- apparent KD of MS2 coat protein (input ligand: FMN 200 uM): 0.0249 µM
- apparent KD of MS2 coat protein (input ligand: none): 0.0213 µM

Sequence: AGUCGGUCAGGAUAUGCAGACGUAGACAUGAGGAUCACCCAUGUGACGUGGGCCUGGUUUGUAGAAGGGACGAGCA [EX5 #83] (Eterna round: R97, puzzle: Exclusion 5)
- apparent KD of MS2 coat protein (input ligand: FMN 200 uM): 0.0302 µM
- apparent KD of MS2 coat protein (input ligand: none): 0.0193 µM

Sequence: UUUUUAUAUGAAGGAUAUACUUAACAUGAGGAUCACCCAUGUGGUGUUGUGAGUGAGUGAGUUUAGUAGAAGGUCAAUUAUUAU [JMF's solution 15] (Eterna round: R96, puzzle: Exclusion NG 2)
- apparent KD of MS2 coat protein (input ligand: FMN 200 uM): 0.719 µM
- apparent KD of MS2 coat protein [1]: 0.39 µM
- apparent KD of MS2 coat protein (input ligand: none): 0.271 µM

Sequence: ACAUGAGGAUCACCCAUGUCUGGCGGGUCCUCUCCGGCUGUUGAGGAUAUAGUUCGGUAUCCGCGCUAGAAGGUGAGGGCCGGC [Aenatbe mod 20] (Eterna round: R96, puzzle: Exclusion NG 3)
- apparent KD of MS2 coat protein (input ligand: FMN 200 uM): 0.0213 µM
- apparent KD of MS2 coat protein [1]: 0.0146 µM
- apparent KD of MS2 coat protein (input ligand: none): 0.0165 µM

Sequence: GUCAUCAAACAUGGGAUCAACAUGAGGAUCACCCAUGUUGACAAGUUUUUUGCUCGUCUUAUAAUACGUUUGAUGAC [Mod-Jx] (Eterna round: R97, puzzle: Sensor, turn-off variant 1)
- apparent KD of MS2 coat protein (input ligand: FMN 200 uM): 0.0162 µM
- apparent KD of MS2 coat protein (input ligand: none): 0.0155 µM

Sequence: UACAUGAGGAUCACCCAUGUUUUAUCAUGUGUAAUAAUAAUGUAGGAUAUGUAUUAUUUUAUUUAACAGAAGGACAAUAAUAAA [JMF's solution 2] (Eterna round: R96, puzzle: Exclusion NG 3)
- apparent KD of MS2 coat protein (input ligand: FMN 200 uM): 0.426 µM
- apparent KD of MS2 coat protein [1]: 0.467 µM
- apparent KD of MS2 coat protein (input ligand: none): 0.524 µM

Sequence: UCAUGUUAGCAGGAUAUGCUAUUUAUCUUUUAUGCAGAAGGGCUUACAUGAGGAUCACCCAUGUAUUAAGUCUU [JR_E6_Sub075] (puzzle: Exclusion 6)
- apparent KD of MS2 coat protein [3]: 0.018 µM

Sequence: AGACAGUCAGGAUAUACAUGAGGAUCACCCAUGUUGAGAUGUGAAAGGGCAGGAAUAGGUAGAAGGGACGAGAG [JR_Exclu3_Sub038] (puzzle: Exclusion 3)
- apparent KD of MS2 coat protein [3]: 0.0306 µM

Sequence: AGCUAGUGCCGAGGAUAUACAUGAGGAUCACCCAUGUAGGCCAGUCGGUUUCUGACUGGCGAGAUGUAGAAGGCGGCGUUGGCA [JL ENG2 1.51] (Eterna round: R96, puzzle: Exclusion NG 2)
- apparent KD of MS2 coat protein (input ligand: FMN 200 uM): 0.049 µM
- apparent KD of MS2 coat protein [1]: 0.0126 µM
- apparent KD of MS2 coat protein (input ligand: none): 0.0156 µM

Sequence: AUAGGAGGAGGAUAUACAUGAGGAUCACCCAUGUGAUCGCCGUAAAAUGCAGUUAGACGUAGAAGGUCUCCCGG [Eternabot (L2) Solution 77] (Eterna round: R97, puzzle: Exclusion 3)
- apparent KD of MS2 coat protein (input ligand: FMN 200 uM): 0.0368 µM
- apparent KD of MS2 coat protein (input ligand: none): 0.0347 µM

Sequence: AAUGAUUGAUGAGGAUAUUGUGGUGAAACACGACGAGAAGGCAUAUGUCACAUGAGGAUCACCCAUGUGAGCUUUGUGGAUAUA [Ex NG1 #67] (Eterna round: R96, puzzle: Exclusion NG 1)
- apparent KD of MS2 coat protein [1]: 0.0183 µM

Sequence: GCAGUUCGAGUUAGGAUAUGAUGUUAAUUCGGAUAUCAGAAGGAACUUGAGGAUCACCCAAGUAUAGAUGUUGC [JR_BMEx4_Sub060] (Eterna round: R97, puzzle: Brourd's mod of Exclusion 4)
- apparent KD of MS2 coat protein (input ligand: FMN 200 uM): 0.0296 µM
- apparent KD of MS2 coat protein (input ligand: none): 0.0186 µM

Sequence: AGUAACCGUCACGAAAGUGAUGGUUACACAAGCAAAUGUACAUGAGGAUCACCCAUGUCCUCAUUUGCUCGUCUUGU [Sensor 3 - 48] (puzzle: Sensor v3, turn-off variant 2)
- apparent KD of MS2 coat protein [2]: 0.101 µM
- apparent KD of MS2 coat protein [3]: 0.398 µM
- apparent KD of MS2 coat protein [4]: 0.121 µM

Sequence: AGCCAAGCAGGAUAUAUCCGGGAUAACAUGAGGAUCACCCAUGUGACCGAUUGAUAUCCUAUAGAAGGGCUUGGGA [Mod of ViennaUCT 23 - Jieux - Exclusion 5] (Eterna round: R97, puzzle: Exclusion 5)
- apparent KD of MS2 coat protein (input ligand: FMN 200 uM): 0.135 µM
- apparent KD of MS2 coat protein (input ligand: none): 0.0435 µM

Sequence: AAUUAGCAAGCGAGAUCCCACAUGAGGAUCACCCAUGUGCUCGUCUUAUAAGGUACUGUGACAAAAGUCACGGUACC [Mat - Sensor, turn-off var - Eli Mod - D18] (Eterna round: R97, puzzle: Sensor, turn-off variant 1)
- apparent KD of MS2 coat protein (input ligand: FMN 200 uM): 0.0179 µM
- apparent KD of MS2 coat protein (input ligand: none): 0.0181 µM

Sequence: GCAAGGGAAGGAUAUACAUUACGACCGUCAUAGUACCUGCGACAUGAGGAUCACCCAUGUAGAAGGUCCAGCGG [EX2 C.13] (Eterna round: R97, puzzle: Exclusion 2)
- apparent KD of MS2 coat protein (input ligand: FMN 200 uM): 0.0174 µM
- apparent KD of MS2 coat protein (input ligand: none): 0.0134 µM

Sequence: UAGUGAGCGUGAGGAAUAUACAUGAGGAUCACCCAUGUUUGCUACUAUCUUGCUCGUCUUAUAACAACAAUUAACUG [mod-hagla-honey#50] (Eterna round: R97, puzzle: Sensor, turn-off variant 1)
- apparent KD of MS2 coat protein (input ligand: FMN 200 uM): 0.0148 µM
- apparent KD of MS2 coat protein (input ligand: none): 0.0169 µM

Sequence: UUAUAACAUGAGGAUCACCCAUGUUAGGAUAUCAGGUACGAGCGCCGUGCUCAGGCCCUGAGAAGGAGCAUGGC [Eternabot (L1) Solution 36] (Eterna round: R97, puzzle: Exclusion 1)
- apparent KD of MS2 coat protein (input ligand: FMN 200 uM): 0.0149 µM
- apparent KD of MS2 coat protein (input ligand: none): 0.0186 µM
